Data on 25 molecules can be found in patent publication US20190100594A1 (INHIBRX, published 2019).

Positions count from the first letter of the chain named.

Sequences and labels used below:
T1: human GITR-CHO (human, UniProt Q9Y5U5)
T1 construct: expressed on the surface of CHO cells, construct not described; also called human GITR expressed on the surface of CHO cells
T1 sequence (looked up): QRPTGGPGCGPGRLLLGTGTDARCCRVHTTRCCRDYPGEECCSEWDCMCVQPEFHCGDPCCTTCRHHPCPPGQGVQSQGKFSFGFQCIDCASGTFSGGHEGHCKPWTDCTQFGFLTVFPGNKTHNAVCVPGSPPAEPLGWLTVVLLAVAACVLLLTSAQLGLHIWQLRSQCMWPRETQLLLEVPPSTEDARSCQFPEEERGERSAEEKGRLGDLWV

T2: GITR expressed on CHO cells (Homo sapiens (Human), UniProt Q9Y5U5 26-241)
T2 construct: also called glucocorticoid-induced TNFR-related protein; TNFRSF18
T2 sequence: T1 sequence (looked up)

B1: hzCC04v5 (VHH)
VHH: EVQLLESGGGEVQPGGSLRLSCAASGFTFSTHGMDWFRQAPGKDLEWVSAIQSGGSWTSYASSVKGRFTISRDNAKNTLYLQMSSLRAEDTAVYWCQNRVTRGQGTLVTV
notes: also called hzC04v5
B2: hzCC04v1.2.1 (VHH)
VHH: B1 VHH with Q52N, S53Q, W95Y
notes: also called hzC04v1.2.1
B3: hzCC04v1 (VHH)
VHH: B1 VHH with Q52N, S53N
notes: sheet prints hzCC04v1; also called hzC04v1
B4: hzCC04v1.2 (VHH)
VHH: B1 VHH with Q52N, S53N, W95Y
notes: sheet prints hzCC04v1.2; also called hzC04v1.2
B5: hzC06v3.7 (VHH)
VHH: EVQLLESGGGEVQPGGSLRLSCAASGSVFSIDAMGWYRQAPGKQRELVAVLSGISSAKYAASAPGRFTISRDAVKNTVYLQMSSLRAEDTAVYYCYADVSTGWGRDAHGYWGQGTLVTV
B6: hzC06v3.9 (VHH)
VHH: B5 VHH with A73N, V74A
B7: hzC06v3.10 (VHH)
VHH: B5 VHH with A61D, S62A, A63V, P64K, D72A, A73S, V74A, K75P
B8: hzC06v3.12 (VHH)
VHH: B5 VHH with D72A, A73S, V74A, K75P
B9: hzCC04v5.3 (VHH)
VHH: B1 VHH with Q82E
notes: sheet prints hzCC04, text hzC04; also called hzC04v5.3
B10: hzCC04v5.4 (VHH)
VHH: B1 VHH with A88P
notes: sheet prints hzCC04, text hzC04; also called hzC04v5.4
B11: hzCC04v5.2 (VHH)
VHH: B1 VHH with S84N, S85N
notes: sheet prints hzCC04, text hzC04; also called hzC04v5.2
B12: hzCC04v5.1 (VHH)
VHH: B1 VHH with Q82E, S84N, S85N, R87K, A88P
notes: sheet prints hzCC04, text hzC04; also called hzC04v5.1
B13: B12 (VHH, not shown: a dimerising Fc or GST)
VHH: QVQLQQSGGGLVQAGGSLRLSCAASGSIFSIDAMGWYRLAPGKQRELVAVIDGVSPNYADSVKGRFTISSDIAKNTVYLQMHSPKPEDTAVYYCNADVSTGWGRPADHYWGQGTQVTVS
B14: C4 (VHH, not shown: a dimerising Fc or GST)
VHH: QVQLVQSGGGLVQPGESLRLSCAASGSVFSIDSMSWFRQGPGNERELVALITGGRTTTYADSVKGRFTISRANAPNTVHLQMNSLKPEDTAVYYCNAAVSTGWGRSADDYWGQGTQVTVS
B15: C7 (VHH, not shown: a dimerising Fc or GST)
VHH: QVQLQESGGGLVQAGGSLRLSCTASGSIFSIDDMGWYRLAPGKQRELVAVHSGSSTNYGDSVKGRFTISGDSAKNTVYLQMHRLEPEDTAVYYCYAAISSGWGRDAEDYWGQGTQVTVS
B16: B2 (VHH, not shown: a dimerising Fc or GST; small tags and cut ends)
VHH: B14 VHH with V5Q, Q6E, E16G, G40A, R55H, A60G, N73S, K86Q, S106N
B17: B3 (VHH, not shown: a dimerising Fc or GST)
VHH: B14 VHH with E16G, S21I, G40R, A60S, N73S, P75L, V99L, S106D, D108S, D109A
B18: E2 (VHH, not shown: a dimerising Fc or GST; small tags and cut ends)
VHH: B14 VHH with V5Q, Q6E, E16G, G40A, N73S, H79Y, A98V, S106N
B19: F2 (VHH, not shown: a dimerising Fc or GST; small tags and cut ends)
VHH: QLVQSGGGLVQPGESLRLSCAASGSVFSIDSVSWFRQGPGNERELVALITGGRTTTYADSVKGRFTISRANAPNTVHLRMNSLKPEDTAVYYCNAAVSTGWGRNADDYWGQGTQVTVS
B20: C06 (VHH, not shown: a dimerising Fc or GST; small tags and cut ends)
VHH: QVQLQESGGGLVQAGGSLRLSCAASGSVFSIDAMGWYRLAPGQQRELVAVLNGISSAKYADSVKGRFTISGDSAKNAVYLQMDGLKPEDTAVYYCYADVSTGWGRDAHGYWGQGTQVTVSS
B21: F05 (VHH, not shown: a dimerising Fc or GST; small tags and cut ends)
VHH: QVQLVQSGGGLVQAGGSLRLSCTASGSIFSINHMAWYRQAPGKQREMVAHITGGASTKYADSVKGRFTISRDSALNTVSLRMNSLKPEDTAVYYCNAEVNEGWNADYYDVWGQGTQVTVSS
B22: 2A1 (VHH, not shown: a dimerising Fc or GST; small tags and cut ends)
VHH: EVQLVQSGGGLVQPGGSLRLSCAASGNIFSIDAMGWYRQAPGRQRELVAQIPGGPTDSVKGRFTVSGNSAKNTGYLQMNTLKPEDTAVYYCNIVASTSWGSPSKVYWGQGTQATVSS
B23: hzC06v3.3 (VHH)
VHH: B5 VHH with A61E, A63V, P64K, A73S, V74A, T77A, S83D, S84G, R86K, A87P
B24: hzC06v3.4 (VHH)
VHH: B5 VHH with A61E, A63V, P64K, A73N, V74A
B25: hzC06v3.6 (VHH)
VHH: B5 VHH with A61E, A63V, P64K, D72A, A73S, V74A, K75P

In general, EC50 (read off the curve) refers to the concentration at which the effect is half-maximal.

In the first assay the target is T3, cyno GITR-CHO (cynomolgus monkey).
T3 construct: expressed on the surface of CHO cells, construct not described; also called cynomolgus GITR expressed on the surface of CHO cells
The assay can be described thus: flow cytometry on cyno GITR-CHO cells.
Consider B1, for which the “EC50 (read off the curve)” value was approximately 2 nM.
Turning to B2, the “EC50 (read off the curve)” value is approximately 2 nM.

Another assay addresses T1, human GITR-CHO. The assay is described as follows: flow cytometry on human GITR-CHO cells.
As for B3, the binding result is “binds”.
Take B4: the binding result is listed as “binds”.

The next assay addresses T1, human GITR-CHO. The assay is described as follows: flow cytometry on human GITR-CHO cells. This is another data set of the same source. A general note: A flow cytometer gives signals particle by particle.
Turning to B5, the “EC50 (read off the curve)” value lay within 1 to 2 nM.
On to B6, for which the “EC50 (read off the curve)” value lay within 1 to 2 nM.
With B7, the “EC50 (read off the curve)” value lay within 1 to 2 nM.
The same measure, in the same setting: in the case of B8 it was 1 to 2 nM.

The next assay deals with T3, cyno GITR-CHO. The assay can be described thus: flow cytometry on cyno GITR-CHO cells. This is another data set of the same source.
Turning to B9, the “EC50 (read off the curve)” value was approximately 2 nM.
In the case of B10, the 50% effective concentration (EC50 (read off the curve)) was approximately 1 nM.
Same read-out and setting: with B11 the figure was approximately 1 nM; with B12, approximately 2 nM.

Another assay addresses T2, GITR expressed on CHO cells. The assay can be described thus: flow cytometry on GITR-expressing CHO cells, MFI-FL4.
Regarding B13, the half-maximal effective concentration (EC50 (read off the curve)) was approximately 4 nM.
As to B14, the “EC50 (read off the curve)” value is 2 to 3 nM.
For B15, the 50% effective concentration (EC50 (read off the curve)) was approximately 2 nM.

For another assay the target is unchanged. The description is as above. This is another data set of the same source.
Take B16: the “EC50 (read off the curve)” value was approximately 0.7 nM.
The same measure, in the same setting: with B17 the figure was approximately 2 nM; with B18, approximately 1 nM.
As for B19, the “EC50 (read off the curve)” value is approximately 1 nM.

The target is the same in the next assay. The assay can be described thus: flow cytometry competition on GITR-expressing CHO cells; blocked ligand recombinant GITRL; readout GITRL bound, MFI-FL1. The source says: Briefly, in these studies, a flow cytometry assay using GITR expressing CHO cells and recombinant GITRL was used to implement to assess blocking capacity. The GITR antibody, TRX-518, was used as a control for these studies.
Take B13: the “IC50 (read off the curve)” value is approximately 6 nM.
On the same count and under the same terms, with B16 the figure was approximately 1 nM; with B17, approximately 3 nM.
The same measure, in the same setting: with B14 the figure was 2 to 3 nM; with B18, approximately 2 nM.
For the molecule B15, the “IC50 (read off the curve)” value is 2 to 3 nM.
On the same count and under the same terms, in the case of B20 it was approximately 2 nM; in that of B21, approximately 4 nM; in that of B22, approximately 10 nM.
On the same count and under the same terms, with B19 the figure was approximately 1 nM.

For a further assay, the target named is T1, human GITR-CHO. The assay can be described thus: flow cytometry on human GITR-CHO cells. The source holds these as a separate data set.
Consider B1, for which the “EC50 (read off the curve)” value is approximately 3 nM.
Still for that read-out and setting: in the case of B2 it was approximately 2 nM.

Another assay concerns the target T3, cyno GITR-CHO. The assay is described as follows: flow cytometry on cyno GITR-CHO cells. The source holds these as a separate data set.
With B5, the “EC50 (read off the curve)” value was approximately 2 nM.
Still for that read-out and setting: in the case of B6 it was approximately 2 nM.
Same read-out and setting: with B7 the figure was approximately 2 nM; with B8, approximately 2 nM.

A further assay has as its target T2, GITR expressed on CHO cells. The assay can be described thus: flow cytometry on GITR-expressing CHO cells, MFI-FL4. The source holds these as a separate data set.
In the case of B20, the “EC50 (read off the curve)” value was approximately 3 nM.
With B21, the half-maximal effective concentration (EC50 (read off the curve)) was approximately 4 nM.
Consider B22, for which the “EC50 (read off the curve)” value was approximately 10 nM.

The next assay deals with T1, human GITR-CHO. The assay can be described thus: flow cytometry on human GITR-CHO cells. The source holds these as a separate data set.
For the molecule B23, the half-maximal effective concentration (EC50 (read off the curve)) was approximately 4 nM.
Turning to B24, the concentration for a half-maximal effect (EC50 (read off the curve)) was approximately 4 nM.
On to B25, for which the “EC50 (read off the curve)” value was approximately 4 nM.

Another assay has as its target T1, human GITR-CHO. The assay can be described thus: flow cytometry on human GITR-CHO cells. This is another data set of the same source.
Turning to B9, the “EC50 (read off the curve)” value was approximately 5 nM.
For B10, the “EC50 (read off the curve)” value was approximately 4 nM.
Same read-out and setting: with B11 the figure was approximately 4 nM; with B12, approximately 4 nM.

In a further assay the target is T3, cyno GITR-CHO. The assay is described as follows: flow cytometry on cyno GITR-CHO cells. This is another data set of the same source.
On to B23, for which the half-maximal effective concentration (EC50 (read off the curve)) was approximately 5 nM.
Same read-out and setting: with B24 the figure was approximately 5 nM; with B25, approximately 4 nM.
